Data published in US20100297703A1.

Legend:
Experiment in all cases: cell-based or functional assay
[1] = biological target: 6His-C-YddH protein (Bacillus subtilis) (UniProt P96645)
[2] = biological target: 6His-C-CwlO protein (Bacillus subtilis) (UniProt P40767)
[3] = biological target: His-tag-fused C-terminal active domain of CwlE (His-CwlECTD) (Bacillus subtilis) (UniProt O07532)
[4] = biological target: h-ACwlS protein (Bacillus subtilis) (UniProt O31852)

6His-C-CwlO protein (Bacillus subtilis), sequence (P40767 343-473): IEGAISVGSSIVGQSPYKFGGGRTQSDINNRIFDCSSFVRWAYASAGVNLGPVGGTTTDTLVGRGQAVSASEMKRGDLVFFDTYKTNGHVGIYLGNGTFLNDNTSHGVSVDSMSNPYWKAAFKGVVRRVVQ
His-tag-fused C-terminal active domain of CwlE (His-CwlECTD) (Bacillus subtilis), sequence (O07532 371-488 limits assumed): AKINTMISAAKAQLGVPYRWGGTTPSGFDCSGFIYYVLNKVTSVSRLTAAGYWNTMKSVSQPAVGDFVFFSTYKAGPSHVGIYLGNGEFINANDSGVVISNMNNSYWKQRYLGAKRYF
6His-C-YddH protein (Bacillus subtilis), sequence (P96645 206-329): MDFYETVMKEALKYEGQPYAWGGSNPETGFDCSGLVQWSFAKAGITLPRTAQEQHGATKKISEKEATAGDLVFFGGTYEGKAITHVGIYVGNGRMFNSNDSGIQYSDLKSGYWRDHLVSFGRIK

- cell wall lysing activity (decrease in turbidity, OD540), enzyme:His-YoeB 1:2 by mole (% of activity inhibited) [1]: 100
- cell wall lysing activity (decrease in turbidity, OD540), enzyme:His-YoeB 1:2 by mole (% of activity inhibited) [2]: 100
- cell wall lysing activity (decrease in turbidity, OD540), His-CwlECTD:His-YoeB 1:2 by mole (% of activity inhibited) [3]: 100
- cell wall lysing activity (decrease in turbidity, OD540), enzyme:His-YoeB 1:2 by mole (% of activity inhibited) [4]: 100
Substance: His-YoeB (from UniProt O34841 24-181)
